Assay results reported in US20230002480A1.

What was measured:
Test in all cases: cell-based or functional assay
[1] = target: HIV-1 Env of pseudovirus 249M B10 (HIV-1)
[2] = target: HIV-1 Env of pseudovirus 1056_10_TA11_1826 (HIV-1)
[3] = target: HIV-1 Env of pseudovirus ZM53M.PB12 (HIV-1)
[4] = target: HIV-1 Env of pseudovirus 1012_11_TC21_3257 (HIV-1)
[5] = target: HIV-1 Env of pseudovirus 7030102001E5(Rev-) (HIV-1)
[6] = target: HIV-1 Env of pseudovirus CNE19 (HIV-1)
[7] = target: HIV-1 Env of pseudovirus ZM135M.PL10a (HIV-1)
[8] = target: HIV-1 Env of pseudovirus Ce703010054_2A2 (HIV-1)
[9] = target: HIV-1 Env of pseudovirus Du172.17 (HIV-1)
[10] = target: HIV-1 Env of pseudovirus Q842.d12 (HIV-1)
[11] = target: HIV-1 Env of pseudovirus TRJO4551.58 (HIV-1)
[12] = target: HIV-1 Env of pseudovirus 1054_07_TC4_1499 (HIV-1)
[13] = target: HIV-1 Env of pseudovirus Ce1086_B2 (HIV-1)
[14] = target: HIV-1 Env of pseudovirus CNE52 (HIV-1)
[15] = target: HIV-1 Env of pseudovirus SC05_8C11_2344 (HIV-1)
[16] = target: HIV-1 Env of pseudovirus 1006_11_C3_1601 (HIV-1)
[17] = target: HIV-1 Env of pseudovirus CNE21 (HIV-1)
[18] = target: HIV-1 Env of pseudovirus CNE17 (HIV-1)
[19] = target: HIV-1 Env of pseudovirus ZM233M.PB6 (HIV-1)
[20] = target: HIV-1 Env of pseudovirus T250-4 (HIV-1)
[21] = target: HIV-1 Env of pseudovirus Ce704809221_1B3 (HIV-1)
[22] = target: HIV-1 Env of pseudovirus AC10.0.29 (HIV-1)
[23] = target: HIV-1 Env of pseudovirus Ce1176_A3 (HIV-1)
[24] = target: HIV-1 Env of pseudovirus CNE20 (HIV-1)

10-1074 (antibody) was tested, and the IC50, titer in TZM.bl cells [1] was > 50 µg/mL, the IC80, titer in TZM.bl cells [1] was > 50 µg/mL and the IC50, titer in TZM.bl cells [2] was 0.038 µg/mL. The IC80, titer in TZM.bl cells [2] was 0.272 µg/mL, the IC50, titer in TZM.bl cells [3] was > 50 µg/mL and the IC80, titer in TZM.bl cells [3] was > 50 µg/mL. The IC50, titer in TZM.bl cells [4] was 0.008 µg/mL, the IC80, titer in TZM.bl cells [4] was 0.059 µg/mL and the IC50, titer in TZM.bl cells [5] was 0.006 µg/mL. For the same substance, the IC80, titer in TZM.bl cells [5] was 0.021 µg/mL, the IC50, titer in TZM.bl cells [6] was 50 µg/mL and the IC80, titer in TZM.bl cells [6] was > 50 µg/mL. For the same substance, the IC50, titer in TZM.bl cells [7] was 0.069 µg/mL, the IC80, titer in TZM.bl cells [7] was 0.367 µg/mL and the IC50, titer in TZM.bl cells [8] was > 50 µg/mL. For the same substance, the IC80, titer in TZM.bl cells [8] was > 50 µg/mL, the IC50, titer in TZM.bl cells [9] was 0.121 µg/mL and the IC80, titer in TZM.bl cells [9] was 0.43 µg/mL. For the same substance, the IC50, titer in TZM.bl cells [10] was > 50 µg/mL, the IC80, titer in TZM.bl cells [10] was > 50 µg/mL and the IC50, titer in TZM.bl cells [11] was 0.17 µg/mL. The IC80, titer in TZM.bl cells [11] was 0.634 µg/mL, the IC50, titer in TZM.bl cells [12] was 0.129 µg/mL and the IC80, titer in TZM.bl cells [12] was 0.563 µg/mL. For the same substance, the IC50, titer in TZM.bl cells [13] was > 50 µg/mL, the IC80, titer in TZM.bl cells [13] was > 50 µg/mL and the IC50, titer in TZM.bl cells [14] was 1.23 µg/mL. It also gave an IC80, titer in TZM.bl cells [14] of 13.1 µg/mL, an IC50, titer in TZM.bl cells [15] of 0.052 µg/mL and an IC80, titer in TZM.bl cells [15] of 0.123 µg/mL. The IC50, titer in TZM.bl cells [16] was 0.003 µg/mL, the IC80, titer in TZM.bl cells [16] was 0.013 µg/mL and the IC50, titer in TZM.bl cells [17] was 0.067 µg/mL. It also gave an IC80, titer in TZM.bl cells [17] of 0.181 µg/mL, an IC50, titer in TZM.bl cells [18] of 2.69 µg/mL and an IC80, titer in TZM.bl cells [18] of 13.3 µg/mL. For the same substance, the IC50, titer in TZM.bl cells [19] was 0.06 µg/mL, the IC80, titer in TZM.bl cells [19] was 0.349 µg/mL and the IC50, titer in TZM.bl cells [20] was < 0.001 µg/mL. For the same substance, the IC80, titer in TZM.bl cells [20] was 0.005 µg/mL, the IC50, titer in TZM.bl cells [21] was 0.139 µg/mL and the IC80, titer in TZM.bl cells [21] was 0.696 µg/mL. It also gave an IC50, titer in TZM.bl cells [22] of 0.022 µg/mL, an IC80, titer in TZM.bl cells [22] of 0.11 µg/mL and an IC50, titer in TZM.bl cells [23] of 0.019 µg/mL. For the same substance, the IC80, titer in TZM.bl cells [23] was 0.07 µg/mL, the IC50, titer in TZM.bl cells [24] was < 0.001 µg/mL and the IC80, titer in TZM.bl cells [24] was 0.005 µg/mL.
With PG9 (antibody) the IC50, titer in TZM.bl cells [1] was 0.095 µg/mL, the IC80, titer in TZM.bl cells [1] was 0.29 µg/mL and the IC50, titer in TZM.bl cells [2] was 6.34 µg/mL. For the same substance, the IC80, titer in TZM.bl cells [2] was 38.3 µg/mL, the IC50, titer in TZM.bl cells [3] was 0.069 µg/mL and the IC80, titer in TZM.bl cells [3] was 0.221 µg/mL. The IC50, titer in TZM.bl cells [4] was 0.172 µg/mL, the IC80, titer in TZM.bl cells [4] was 0.605 µg/mL and the IC50, titer in TZM.bl cells [5] was > 50 µg/mL. The IC80, titer in TZM.bl cells [5] was > 50 µg/mL, the IC50, titer in TZM.bl cells [6] was 0.024 µg/mL and the IC80, titer in TZM.bl cells [6] was 0.146 µg/mL. For the same substance, the IC50, titer in TZM.bl cells [7] was 20.6 µg/mL, the IC80, titer in TZM.bl cells [7] was > 50 µg/mL and the IC50, titer in TZM.bl cells [8] was 0.022 µg/mL. For the same substance, the IC80, titer in TZM.bl cells [8] was 0.103 µg/mL, the IC50, titer in TZM.bl cells [9] was 0.606 µg/mL and the IC80, titer in TZM.bl cells [9] was 1.6 µg/mL. For the same substance, the IC50, titer in TZM.bl cells [10] was 0.023 µg/mL, the IC80, titer in TZM.bl cells [10] was 0.081 µg/mL and the IC50, titer in TZM.bl cells [11] was 0.503 µg/mL. For the same substance, the IC80, titer in TZM.bl cells [11] was 4.06 µg/mL, the IC50, titer in TZM.bl cells [12] was > 50 µg/mL and the IC80, titer in TZM.bl cells [12] was > 50 µg/mL. The IC50, titer in TZM.bl cells [13] was > 50 µg/mL, the IC80, titer in TZM.bl cells [13] was > 50 µg/mL and the IC50, titer in TZM.bl cells [14] was 0.029 µg/mL. The IC80, titer in TZM.bl cells [14] was 0.081 µg/mL, the IC50, titer in TZM.bl cells [15] was 0.892 µg/mL and the IC80, titer in TZM.bl cells [15] was 4.28 µg/mL. It also gave an IC50, titer in TZM.bl cells [16] of 0.366 µg/mL, an IC80, titer in TZM.bl cells [16] of 1.91 µg/mL and an IC50, titer in TZM.bl cells [17] of 0.038 µg/mL. It also gave an IC80, titer in TZM.bl cells [17] of 0.094 µg/mL, an IC50, titer in TZM.bl cells [18] of 0.21 µg/mL and an IC80, titer in TZM.bl cells [18] of 0.484 µg/mL. The IC50, titer in TZM.bl cells [19] was 0.01 µg/mL, the IC80, titer in TZM.bl cells [19] was 0.026 µg/mL and the IC50, titer in TZM.bl cells [20] was 0.005 µg/mL. It also gave an IC80, titer in TZM.bl cells [20] of 0.014 µg/mL, an IC50, titer in TZM.bl cells [21] of 0.037 µg/mL and an IC80, titer in TZM.bl cells [21] of 0.137 µg/mL. For the same substance, the IC50, titer in TZM.bl cells [22] was 0.117 µg/mL, the IC80, titer in TZM.bl cells [22] was 0.845 µg/mL and the IC50, titer in TZM.bl cells [23] was 0.014 µg/mL. It also gave an IC80, titer in TZM.bl cells [23] of 0.044 µg/mL, an IC50, titer in TZM.bl cells [24] of 0.052 µg/mL and an IC80, titer in TZM.bl cells [24] of 0.278 µg/mL.
Work on PG16 (antibody) yielded an IC50, titer in TZM.bl cells [1] of 0.026 µg/mL, an IC80, titer in TZM.bl cells [1] of 1.25 µg/mL and an IC50, titer in TZM.bl cells [2] of 0.315 µg/mL. It also gave an IC80, titer in TZM.bl cells [2] of 1.95 µg/mL, an IC50, titer in TZM.bl cells [3] of 0.007 µg/mL and an IC80, titer in TZM.bl cells [3] of 0.051 µg/mL. For the same substance, the IC50, titer in TZM.bl cells [4] was 0.03 µg/mL, the IC80, titer in TZM.bl cells [4] was 0.219 µg/mL and the IC50, titer in TZM.bl cells [5] was > 50 µg/mL. For the same substance, the IC80, titer in TZM.bl cells [5] was > 50 µg/mL, the IC50, titer in TZM.bl cells [6] was 0.024 µg/mL and the IC80, titer in TZM.bl cells [6] was 3.07 µg/mL. For the same substance, the IC50, titer in TZM.bl cells [7] was > 50 µg/mL, the IC80, titer in TZM.bl cells [7] was > 50 µg/mL and the IC50, titer in TZM.bl cells [8] was 0.008 µg/mL. For the same substance, the IC80, titer in TZM.bl cells [8] was 0.053 µg/mL, the IC50, titer in TZM.bl cells [9] was 0.033 µg/mL and the IC80, titer in TZM.bl cells [9] was 0.213 µg/mL. The IC50, titer in TZM.bl cells [10] was 0.032 µg/mL, the IC80, titer in TZM.bl cells [10] was > 0.25 µg/mL and the IC50, titer in TZM.bl cells [11] was 1.01 µg/mL. For the same substance, the IC80, titer in TZM.bl cells [11] was 24.5 µg/mL, the IC50, titer in TZM.bl cells [12] was > 50 µg/mL and the IC80, titer in TZM.bl cells [12] was > 50 µg/mL. For the same substance, the IC50, titer in TZM.bl cells [13] was > 50 µg/mL, the IC80, titer in TZM.bl cells [13] was > 50 µg/mL and the IC50, titer in TZM.bl cells [14] was 0.009 µg/mL. For the same substance, the IC80, titer in TZM.bl cells [14] was 0.026 µg/mL, the IC50, titer in TZM.bl cells [15] was 0.07 µg/mL and the IC80, titer in TZM.bl cells [15] was 1.62 µg/mL. The IC50, titer in TZM.bl cells [16] was > 50 µg/mL, the IC80, titer in TZM.bl cells [16] was > 50 µg/mL and the IC50, titer in TZM.bl cells [17] was 0.007 µg/mL. It also gave an IC80, titer in TZM.bl cells [17] of 0.026 µg/mL, an IC50, titer in TZM.bl cells [18] of 0.029 µg/mL and an IC80, titer in TZM.bl cells [18] of 0.132 µg/mL. It also gave an IC50, titer in TZM.bl cells [19] of 0.002 µg/mL, an IC80, titer in TZM.bl cells [19] of 0.006 µg/mL and an IC50, titer in TZM.bl cells [20] of 0.002 µg/mL. The IC80, titer in TZM.bl cells [20] was 0.005 µg/mL, the IC50, titer in TZM.bl cells [21] was 0.021 µg/mL and the IC80, titer in TZM.bl cells [21] was 0.116 µg/mL. For the same substance, the IC50, titer in TZM.bl cells [22] was 0.023 µg/mL, the IC80, titer in TZM.bl cells [22] was 0.417 µg/mL and the IC50, titer in TZM.bl cells [23] was 0.003 µg/mL. The IC80, titer in TZM.bl cells [23] was 0.011 µg/mL, the IC50, titer in TZM.bl cells [24] was 3.63 µg/mL and the IC80, titer in TZM.bl cells [24] was 47.2 µg/mL.
